Reference: paper PMC12513289 (The Journal of Biological Chemistry, 2025)

Molecular target: the molecule itself
Assay: mass photometry, R534* homodimer

B1: human AsnRS R534∗ (ΔR534-P548), N-terminal 6xHis tag (enzyme, UniProt O43776 1-533, looked up)
chain: MVLAELYVSDREGSDATGDGTKEKPFKTGLKALMTVGKEPFPTIYVDSQKENERWNVISKSQLKNIKKMWHREQMKSESREKKEAEDSLRREKNLEEAKKITIKNDPSLPEPKCVKIGALEGYRGQRVKVFGWVHRLRRQGKNLMFLVLRDGTGYLQCVLADELCQCYNGVLLSTESSVAVYGMLNLTPKGKQAPGGHELSCDFWELIGLAPAGGADNLINEESDVDVQLNNRHMMIRGENMSKILKARSMVTRCFRDHFFDRGYYEVTPPTLVQTQVEGGATLFKLDYFGEEAFLTQSSQLYLETCLPALGDVFCIAQSYRAEQSRTRRHLAEYTHVEAECPFLTFDDLLNRLEDLVCDVVDRILKSPAGSIVHELNPNFQPPKRPFKRMNYSDAIVWLKEHDVKKEDGTFYEFGEDIPEAPERLMTDTINEPILLCRFPVEIKSFYMQRCPEDSRLTESVDVLMPNVGEIVGGSMRIFDSEEILAGYKREGIDPTPYYWYTDQRKYGTCPHGGYGLGLERFLTWILNRYHI
notes: also called His-R534∗; R534∗ mutant; source: E. coli BL21(DE3) or BL21 ClearColi, purified (Ni-NTA, heparin, SEC); not shown: His6, N-terminal, kept
B1 gave a Kd of 54.4 nM.
